The values that follow come from US20180194839A1 (Novartis, published 2018).

Positions count from the first letter of the chain named. In names and notes the source's numbering stands. Like-named read-outs stand apart in the source and are kept apart here.

For test [1], the target named is T1, recombinant human IL-17F (SEQ ID NO: 77) (human, UniProt Q96PD4 31-163).
T1 construct: homodimer; also called huIL-17F; rhuIL-17F
T1 sequence: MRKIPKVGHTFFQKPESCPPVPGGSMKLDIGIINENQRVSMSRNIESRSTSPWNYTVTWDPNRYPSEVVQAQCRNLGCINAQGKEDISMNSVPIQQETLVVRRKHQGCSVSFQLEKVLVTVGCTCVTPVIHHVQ
Description: ELISA, coated antigen.

Test [2] addresses T2, recombinant cynomolgus IL-17F (SEQ ID NO: 80) (cynomolgus monkey, UniProt Q96PD4 31-163 (human entry), limits assumed).
T2 construct: also called cynoIL-17F; cyno IL-17F
T2 chain: T1 sequence with G23E, I30T, R74K, N75H, V101L, I130V
Description: ELISA, coated antigen.

For test [3], the target named is T3, human IL-17A (construct not stated) (human, UniProt Q16552 24-155, limits assumed).
T3 sequence: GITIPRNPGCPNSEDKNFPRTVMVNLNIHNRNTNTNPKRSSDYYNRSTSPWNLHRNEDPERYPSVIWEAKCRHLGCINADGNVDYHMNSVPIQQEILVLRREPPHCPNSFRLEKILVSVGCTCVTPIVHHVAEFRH
Nature of the test: cell-based or functional assay.

Test [4] concerns the target T4, recombinant cynomolgus IL-17A (SEQ ID NO: 79) (cynomolgus monkey, UniProt Q16552 24-155 (human entry), limits assumed).
T4 construct: also called cynoIL-17A; cyno IL-17A
T4 chain: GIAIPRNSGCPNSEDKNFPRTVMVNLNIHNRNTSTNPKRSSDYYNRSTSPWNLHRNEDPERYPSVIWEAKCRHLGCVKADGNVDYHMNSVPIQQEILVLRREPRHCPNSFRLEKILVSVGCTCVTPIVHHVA
Nature of the test: SPR (Biacore), captured antibody, antigen as analyte.

In test [5] the target is T5, marmoset IL-17A (SEQ ID NO: 82) (marmoset monkey).
T5 construct: also called marmIL-17A
T5 chain: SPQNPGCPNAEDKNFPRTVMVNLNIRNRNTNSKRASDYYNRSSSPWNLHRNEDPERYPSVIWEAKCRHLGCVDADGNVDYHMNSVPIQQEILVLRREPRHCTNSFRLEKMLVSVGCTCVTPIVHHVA
Described as above.

The target of test [6] is T6, recombinant mouse IL-17A (SEQ ID NO: 83) (mouse, UniProt Q62386 26-158).
T6 construct: also called mIL-17A; rmIL-17A
T6 sequence: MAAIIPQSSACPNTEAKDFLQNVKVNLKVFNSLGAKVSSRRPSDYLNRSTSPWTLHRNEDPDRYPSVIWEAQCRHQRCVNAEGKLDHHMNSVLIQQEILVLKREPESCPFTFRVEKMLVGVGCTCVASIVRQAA
Described as above.

Test [7] concerns the target T7, recombinant rat IL-17A (SEQ ID NO: 85) (rat, UniProt Q61453 18-150).
T7 construct: also called rratIL-17A; rIL-17A
T7 sequence: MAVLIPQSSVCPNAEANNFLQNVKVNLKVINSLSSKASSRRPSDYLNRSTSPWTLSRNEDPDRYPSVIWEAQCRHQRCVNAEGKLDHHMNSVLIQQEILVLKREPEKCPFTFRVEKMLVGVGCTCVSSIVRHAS
The test is described as above.

For test [8], the target named is T8, recombinant human IL-17A (SEQ ID NO: 78) (human, UniProt Q16552 24-155, limits assumed).
T8 construct: homodimer; also called huIL-17A; hulL-17A
T8 sequence: T4 chain with A3T, S8P, S34N, V77I, K78N, R104P
The description is as above.

Test [9] concerns the target T9, recombinant human IL-17A/F heterodimer (human, UniProt Q16552 24-155; Q96PD4 31-163, limits assumed).
T9 construct: heterodimer of an IL-17A subunit and an IL-17F subunit; also called huIL-17A/F; rhuIL-17A/F
T9 sequence (looked up) 1: T4 chain with A3T, S8P, S34N, V77I, K78N, R104P
T9 sequence (looked up) 2: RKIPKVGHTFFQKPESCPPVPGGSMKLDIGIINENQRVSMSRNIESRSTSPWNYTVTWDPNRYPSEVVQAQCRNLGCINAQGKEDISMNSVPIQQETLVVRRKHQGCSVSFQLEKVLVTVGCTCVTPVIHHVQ
Described as above.

Test [10] addresses T4, recombinant cynomolgus IL-17A (SEQ ID …). The test is described as above.
Test [11] deals with T6, recombinant mouse IL-17A (SEQ ID NO: 83). Described as above. The source holds these as a separate data set.
The target of test [12] is T10, recombinant mouse IL-17A/F (R&D Systems Cat#5390-IL) (mouse, UniProt Q62386 26-158; Q7TNI7 29-161, limits assumed).
T10 construct: bought heterodimer; also called mIL-17A/F; rmIL-17A/F
T10 sequence (looked up) 1: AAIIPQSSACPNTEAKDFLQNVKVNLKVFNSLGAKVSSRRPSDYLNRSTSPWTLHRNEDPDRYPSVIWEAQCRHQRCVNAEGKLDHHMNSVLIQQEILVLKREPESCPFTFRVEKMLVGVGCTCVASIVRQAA
T10 sequence (looked up) 2: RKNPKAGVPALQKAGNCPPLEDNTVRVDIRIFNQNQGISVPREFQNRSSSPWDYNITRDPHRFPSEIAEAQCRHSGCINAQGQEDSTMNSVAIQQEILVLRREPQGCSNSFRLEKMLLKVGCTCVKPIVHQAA
The test is described as above.

In test [13] the target is T7, recombinant rat IL-17A (SEQ ID NO: 85). Described as above. This is another data set of the same source.

B1: XAB4 (antibody, human IgG1, kappa, V domains shown)
VH: EVQLVESGGDLVQPGGSLRLSCAASGFTFSSYWMSWVRQAPGKGLEWVANIKQDGSEKYYVDSVKGRFTISRDNAKNSLYLQMNSLRAEDTAVYYCARDRGSLYYWGQGTLVTVSS
VL: AIQLTQSPSSLSASVGDRVTITCRPSQGINWELAWYQQKPGKAPKLLIYDASSLEQGVPSRFSGSGSGTDFTLTISSLQPEDFATYYCQQFNSYPLTFGGGTKVEIKR
notes: also called MB435 N56Q
Take B1: the binding result in test [1] and in [2] was “no binding (tested: 1 µg/ml)” throughout. The “EC50, in vitro neutralization activity, T = 0 weeks” value in test [3] amounted to 0.048 µg/mL. Besides, the “EC50, in vitro neutralization activity, T = 4 weeks at pH 8, 40°C (forced deamidation)” value in test [3] stood at 47 ng/ml. The Kd came to 0.031 nM in test [4], 0.018 nM in [5], 0.16 nM in test [6] and 0.084 nM in test [7].

B2: XAB1 (antibody, human IgG1, kappa, V domains shown)
VH: B1 VH
VL: B1 VL with N30I, W31S, E32A, Q56N
notes: human IgG1/kappa monoclonal antibody; also called parental XAB1; XAB1 IgG
On to B2, for which the dissociation constant Kd in [8] is 0.0403 nM; in test [9], 1.48 nM; in test [10], 0.526 nM; in [11], 0.353 nM; in [12] it was 5.09 nM; in test [13], 0.301 nM. For the same molecule, the koff in test [8] is 9.39e-05 s⁻¹; in [9], 0.00134 s⁻¹; in test [10], 0.000113 s⁻¹; in [11], 0.000143 s⁻¹; in [12], 0.000955 s⁻¹; in test [13], 0.000164 s⁻¹.
